Assays:
TKCC10 cells = assay: Survival assay with cytotoxin-conjugated antibodies, TKCC10; format: cell-based, human; conditions: TKCC10, 1 μg/ml, 12 h treatment then 72 h growth
Procedure: The relative number of viable cells was then measured by adding the CellTiter AQueous One Solution Reagent to each well and measuring absorbance at 490 nm as described above. […] Cells were imaged by wide-field fluorescence microscopy and the total area of confluence for each cell type was quantified by image analysis using Image J software.

OVMZ6 cells = assay: Colony formation assay, OVMZ6 cells; format: cell-based, human; conditions: even at the highest concentration
Procedure: MMAE-conjugated 10D7 and IgG1K were prepared as described (Nielsen C F, et al., (2017) Oncotarget. 8(27):44605-24.53) and drug-antibody ratio (DAR) determined by reverse phase LC/MS as reported (Basa L. et al., (2013) Methods Mol Biol. 1045:285-93.) on an ABSCIEX Triple TOF spectrometer (AB SCIEX Framingham, Mass.) coupled to a Shimadzu Nexera 1D UHPLC system (Shimadzu, Rydalmere, Australia). ADC peak identification was performed as reported with DAR determined by peak area integration (Hamblett K J, et al., (2004) Clin Cancer Res. 10(20):7063-70; Yao X, et al., (2015) Breast Cancer Res Treat. 153(1):123-33). Colony-formation assays were performed as described (Crowley L C, et al., (2016) Cold Spring Harb Protoc. 2016(8):pdb.prot087171) on cells (100,000/ml) treated with the indicated concentrations of 10D7, 10D7-MMAE, IgG or IgG-MMAE overnight before being lifted and replated in 24-well plates (200 cells/well). After a defined growth period media was removed and cells gently PBS washed before staining with 0.1% crystal violet (Sigma-Aldrich) in 2% ethanol. After 20 minutes and stained cells were scanned (700 nm) on a LiCOR System (Odyssey V3.0 software) with images analyzed using the ColonyArea ImageJ plugin to quantify colony area and intensity (Guzmán C, et al., (2014) PLoS One. 9(3):e92444.). […]

B1: 10D7-MMAE (conjugate)
VH: EVQLQQFGAELVKPGASVKISCKASGYSFSDFNIEWLKQSHGKSLEWIGDINPNYDSTNYNQKFKGRATLTVDKSSSTAYMEVRSLTSEDTAVYYCARLGYGYAMDYWGQGTSVTVSS
VL: NIVMTQSPQSMSMSVGERVTLSCKASENVGAYVSWFQQKPDQSPKLLILAASNRYTGVPARFIGSGSATDFTLTISSVQAEDLADYHCGQSYTYPYTFGGGTKLEIKRADAAPTVS
survival of cells (TKCC10 cells): about 50% | colony formation (OVMZ6 cells): unaffected

Source: patent publication US20220389113A1, “BINDING PROTEINS TO CUB DOMAIN-CONTAINING PROTEIN (CDCP1)” (COMMONWEALTH SCIENTIFIC AND INDUSTRIAL RESEARCH ORGANISATION, priority 2019, published 2022)
